Eight molecules from patent US20250215104A1 (WALDEN BIOSCIENCES, published 2025) can be followed below.

In general, koff refers to a measure of how fast the partners let go of each other. By Kd is commonly meant the concentration at which binding is half-saturated.

The target in assay [1] is T1, human soluble urokinase plasminogen activator receptor (suPAR) (human, UniProt Q03405 23-303, limits assumed).
T1 construct: also called hsuPAR; human suPAR
In words: dissociation rate (kdis) on human suPAR; method not stated.

For assay [2], the target named is T2, mouse cell surface uPAR (muPAR) (mouse, UniProt P35456 24-298).
T2 construct: whole, on cells; also called mouse uPAR
T2 sequence (looked up): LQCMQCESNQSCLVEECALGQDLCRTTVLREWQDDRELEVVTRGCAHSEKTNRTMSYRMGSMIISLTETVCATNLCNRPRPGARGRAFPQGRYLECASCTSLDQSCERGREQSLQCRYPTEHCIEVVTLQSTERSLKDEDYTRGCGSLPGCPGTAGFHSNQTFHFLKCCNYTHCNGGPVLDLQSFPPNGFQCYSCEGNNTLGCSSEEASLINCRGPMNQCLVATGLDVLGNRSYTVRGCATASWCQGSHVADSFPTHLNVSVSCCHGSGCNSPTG
In words: flow cytometry on undifferentiated mouse podocytes, FITC secondary antibody. The method, then:
Gene expression of mouse uPAR in undifferentiated mouse podocyte cells was undertaken using commercial gene specific qPCR probes for mouse and human uPAR and normalized to 18S housekeeping gene expression using manufacturers RT-qPCR protocol (Thermofisher). Separately, mouse podocytes were incubated with 100 μg/mL concentration of anti-hsuPAR and Proteintech positive control anti-mouse uPAR antibodies at 4° C. for 1 hr. After 2 cycles of wash to remove any unbound antibody, cells were incubated with 10 μg/mL of a goat-anti-human-FITC or goat-anti-mouse-FITC or goat-anti-rabbit-FITC conjugated secondary antibody for 1 hr at 4° C. After washing any unbound secondary antibody, cell suspensions for each sample was gated for single cells and population mean fluorescence intensity was recorded and analyzed on a Luminex Flowsight flow cytometer. Mean fluorescence intensity for test samples was plotted in GraphPad Prism software and compared to positive control sample data.
Background: In flow cytometry, cells or beads pass a laser one at a time.

For assay [3], the target named is T3, Fc-gammaR1 receptor recombinant protein, biotinylated (Homo sapiens (Human), UniProt P12314 16-292, Biotinylated for capture on the sensor; the site of biotin is not stated in the passages seen.).
T3 construct: also called Fc-gammaR1 isoform
T3 sequence (P12314 16-292 limits assumed, form in doubt): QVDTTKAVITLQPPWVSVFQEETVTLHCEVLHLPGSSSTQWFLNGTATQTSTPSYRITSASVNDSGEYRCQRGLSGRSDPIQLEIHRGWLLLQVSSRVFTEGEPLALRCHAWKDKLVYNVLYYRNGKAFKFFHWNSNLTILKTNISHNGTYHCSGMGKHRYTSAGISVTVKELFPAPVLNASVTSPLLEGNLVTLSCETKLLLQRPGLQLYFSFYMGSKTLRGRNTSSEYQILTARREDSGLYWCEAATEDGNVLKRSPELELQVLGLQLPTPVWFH
In words: BLI (Octet Red96E), biotinylated Fc-gammaR1 on streptavidin sensor, antibody as analyte. The method, then:
Antibody induced immune response is known to be mediated by interaction with Fc-gamma receptors. Immunologic response potential of WAL0921-ΔK was assessed biophysically on an Octet Red96E platform by measuring the binding affinity to Fc-gammaR1, high affinity Fc-gammaR2a and high affinity Fc-gammaR3a receptor recombinant proteins.
Biotinylated Fc-gamma proteins were procured from Acro Biosystems and immobilized on a streptavidin biosensor. Increasing concentrations of analyte WAL0921-ΔK were then applied, and responses measured. Binding affinity (KD, nM) was calculated from the response rate constants as described above.
A general note: BLI is a label-free optical method that tracks binding on a fibre tip over time.

A further assay concerns the target T4, cynomolgus suPAR (cynomolgus, UniProt Q9GK78 23-303, limits assumed).
T4 construct: also called Cynomolgus suPAR isoform protein; cynomolgus uPAR
Description: BLI (Octet Red 96E), antibody immobilized. An excerpt: Recombinantly expressed proteins for hsuPAR isoform 1-D2D3 fragment and hsuPAR-3 isoforms were custom generated in HEK or CHO cells and purified by Genscript from the known amino-acid sequence of hsuPAR-1 and hsuPAR-3 respectively. Cynomolgus suPAR isoform protein was commercially obtained from Creative Biomart.

For assay [4], the target named is T5, human suPAR (hsuPAR) recombinant protein (human, UniProt Q03405 23-303).
T5 construct: it is written here as the same molecule; also called recombinant hsuPAR
T5 sequence (Q03405 23-303): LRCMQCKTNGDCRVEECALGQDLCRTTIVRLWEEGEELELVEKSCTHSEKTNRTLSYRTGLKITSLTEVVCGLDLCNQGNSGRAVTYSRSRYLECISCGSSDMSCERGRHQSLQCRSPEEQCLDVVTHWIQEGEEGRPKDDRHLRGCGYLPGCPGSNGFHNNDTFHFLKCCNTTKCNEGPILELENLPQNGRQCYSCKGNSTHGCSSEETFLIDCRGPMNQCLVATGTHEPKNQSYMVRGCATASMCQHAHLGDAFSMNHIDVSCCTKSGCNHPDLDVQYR
Description: BLI (Octet Red96E), WAb0014 immobilized on AHC sensor, hsuPAR as analyte. As for the experimental part: (§1) Analyte global association (kₐ) and disassociation […] rates were calculated using in-built functions to determine binding affinity (KD)

The target of assay [5] is T5, human suPAR (hsuPAR) recombinant protein. Description: BLI (Octet Red96E), hsuPAR immobilized on streptavidin sensor, WAb0014 as analyte. The method, then: as §1
Assay [6] addresses T6, cell surface human uPAR (huPAR) (human, UniProt Q03405 23-305).
T6 construct: whole, on cells; also called cell surface huPAR; cell surface uPAR
Description: flow cytometry on human podocytes, FITC secondary antibody, MFI against concentration. As for the experimental part:
After 2 cycles of wash to remove any unbound antibody, cells were incubated with 10 μg/mL of a goat-anti-human-FITC conjugated secondary antibody for 1 hr at 4° C.

For assay [7], the target named is T7, human neonatal FcRn receptor (hFcRn), biotinylated (human, UniProt P55899 24-297, biotinylated (site not stated)).
T7 construct: also called FcRn receptors; neonatal FcRn receptors
T7 sequence (P55899 24-297 limits assumed, form in doubt): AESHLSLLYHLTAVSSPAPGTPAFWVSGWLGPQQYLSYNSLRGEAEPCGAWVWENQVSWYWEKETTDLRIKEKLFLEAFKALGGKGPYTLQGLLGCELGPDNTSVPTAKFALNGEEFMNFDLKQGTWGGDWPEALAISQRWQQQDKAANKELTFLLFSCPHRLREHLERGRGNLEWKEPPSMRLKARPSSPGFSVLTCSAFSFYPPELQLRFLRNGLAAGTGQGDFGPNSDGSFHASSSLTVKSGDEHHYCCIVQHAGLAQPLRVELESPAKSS
Description: BLI (Octet Red96E), biotinylated hFcRn on SA sensor, WAb0014 as analyte, acidic conditions (pH 6). As for the experimental part: Biotinylated hFcRn protein was sourced from Acro Biosystems and immobilized on a SA biosensor. […] Binding affinity (KD, nM) was calculated from the response rate constants as described above.

T1 sequence (Q03405 23-303 limits assumed): as the sequence (Q03405 23-303) above
T4 sequence (Q9GK78 23-303 limits assumed): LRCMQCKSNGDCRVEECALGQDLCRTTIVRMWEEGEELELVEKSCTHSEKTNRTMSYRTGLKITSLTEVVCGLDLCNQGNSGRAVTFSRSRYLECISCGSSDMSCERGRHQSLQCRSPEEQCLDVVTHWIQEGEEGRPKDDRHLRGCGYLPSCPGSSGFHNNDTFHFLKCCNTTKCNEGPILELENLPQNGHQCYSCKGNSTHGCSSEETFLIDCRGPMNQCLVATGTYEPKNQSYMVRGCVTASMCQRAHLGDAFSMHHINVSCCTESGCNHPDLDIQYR
T6 sequence (Q03405 23-305): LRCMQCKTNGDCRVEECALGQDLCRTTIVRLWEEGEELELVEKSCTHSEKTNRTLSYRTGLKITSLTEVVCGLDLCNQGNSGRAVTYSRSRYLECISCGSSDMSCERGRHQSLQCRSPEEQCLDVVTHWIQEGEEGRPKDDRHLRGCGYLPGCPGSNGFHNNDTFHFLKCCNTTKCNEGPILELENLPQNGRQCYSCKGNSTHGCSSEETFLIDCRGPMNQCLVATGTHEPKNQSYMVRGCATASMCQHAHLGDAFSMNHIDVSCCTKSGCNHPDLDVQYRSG

B1: WAb0018 (antibody, V domains shown)
VH: QVQLVQSGAEVKKPGASVKVSCKASGYTFTNYYMHWVRQAPGQGLEWMGWIDHENGNTIYDQKFQGRVTMTRDTSTSTVYMELSSLRSEDTAVYYCARGYDVDWFVYWGQGTLVTVSS
VL: DIQMTQSPSSLSASVGDRVTITCSASSSISYMYWYQQKPGKAPKLLIYRTSNLASGVPSRFSGSGSGTDFTLTISSLQPEDFATYYCQQYHSYPPTFGGGTKVEIK
notes: constant regions not tied to this antibody; also called WAb CD0018
B1 gave a koff in assay [1] of 2.6e-07 s⁻¹.

B2: WAb0008 (antibody, IgG2a, V domains shown)
VH: QVQLVQSGAEVKKPGASVKVSCKASGYTFTSHYIQWVRQAPGQGLEWMGWIDHENGNTIYDQKFQGRVTMTRDTSTSTVYMELSSLRSEDTAVYYCARGTDVDWFVYWGQGTLVTVSS
VL: DIQMTQSPSSLSASVGDRVTITCSARSSVSYMYWYQQKPGKAPKLLIYRTSNLASGVPSRFSGSGSGTDFTLTISSLQPEDFATYYCQQYHSYPPTFGGGTKVEIK
notes: The listing names these entries 'WAb CD0008'; WAb0006 VH + mIgG2a Fc with L235A and L236A; WAb0006 VL + mouse kappa constant; also called WAb008; mouse IgG2a version of WAb0006
Turning to B2, the binding result in assay [2] is “no binding (tested: 100 µg/mL)”.

B3: WAb0019 (antibody, V domains shown)
VH: QVQLVQSGAEVKKPGASVKVSCKASGYTFSSYYMHWVRQAPGQGLEWMGWIDHENGNTIYAQKFQGRVTMTRDTSTSTVYMELSSLRSEDTAVYYCARGYDVDWFVYWGQGTLVTVSS
VL: DIQMTQSPSSLSASVGDRVTITCSARSSVSYMYWYQQKPGKAPKLLIYRTSNLASGVPSRFSGSGSGTDFTLTISSLQPEDFATYYCQQYHSYPPTFGGGTKVEIK
notes: constant regions not tied to this antibody; also called WAb CD0019
B3 came in with a koff in assay [1] of 3.43e-07 s⁻¹.

B4: WAb0020 (antibody, V domains shown)
VH: QVQLVQSGAEVKKPGASVKVSCKASGYTFTSHYVHWVRQAPGQGLEWMGWIDHENGNTIYDQKFQGRVTMTRDTSTSTVYMELSSLRSEDTAVYYCARGYDVDWFVYWGQGTLVTVSS
VL: DIQMTQSPSSLSASVGDRVTITCSARSSVSYMYWYQQKPGKAPKLLIYRTSNLASGVPSRFSGSGSGTDFTLTISSLQPEDFATYYCQQYHSYPPTFGGGTKVEIK
notes: constant regions not tied to this antibody; also called WAb CD0020
B4 registered a koff in assay [1] of 3.42e-07 s⁻¹.

B5: WAb0014 (antibody)
heavy: not shown
light: DIQMTQSPSSLSASVGDRVTITCSARQSVSYMYWYQQKPGKAPKLLIYRTSNLASGVPSRFSGSGSGTDFTLTISSLQPEDFATYYCQQYHSYPPTFGGGTKVEIKRTVAAPSVFIFPPSDEQLKSGTASVVCLLNNFYPREAKVQWKVDNALQSGNSQESVTEQDSKDSTYSLSSTLTLSKADYEKHKVYACEVTHQGLSSPVTKSFNRGEC
notes: also called original candidate; WAL0921 without P330G
In turn, B5 returned a koff in assay [1] of 2.57e-07 s⁻¹.

B6: WAL0921-ΔK (antibody)
heavy: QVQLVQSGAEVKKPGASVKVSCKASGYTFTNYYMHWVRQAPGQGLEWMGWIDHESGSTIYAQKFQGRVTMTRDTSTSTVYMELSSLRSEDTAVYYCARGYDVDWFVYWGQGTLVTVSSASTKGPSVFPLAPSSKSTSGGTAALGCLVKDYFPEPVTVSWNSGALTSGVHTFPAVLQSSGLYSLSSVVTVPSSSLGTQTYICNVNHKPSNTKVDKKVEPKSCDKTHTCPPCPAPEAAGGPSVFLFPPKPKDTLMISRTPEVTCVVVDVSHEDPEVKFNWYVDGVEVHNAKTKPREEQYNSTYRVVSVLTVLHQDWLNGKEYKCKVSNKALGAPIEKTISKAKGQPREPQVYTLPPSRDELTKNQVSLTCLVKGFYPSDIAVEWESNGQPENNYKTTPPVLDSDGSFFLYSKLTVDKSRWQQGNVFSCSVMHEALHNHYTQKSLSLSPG
light: DIQMTQSPSSLSASVGDRVTITCSARQSVSYMYWYQQKPGKAPKLLIYRTSNLASGVPSRFSGSGSGTDFTLTISSLQPEDFATYYCQQYHSYPPTFGGGTKVEIKRTVAAPSVFIFPPSDEQLKSGTASVVCLLNNFYPREAKVQWKVDNALQSGNSQESVTEQDSKDSTYSLSSTLTLSKADYEKHKVYACEVTHQGLSSPVTKSFNRGEC
notes: Same as WAL0921 but without the C-terminal lysine of the heavy chain (K448 of the whole heavy chain); also called WAL0921 without K448
For B6, in assay [3], the Kd was found to be 1750 nM.

B7: WAb0014 (antibody, human IgG1)
heavy: not shown
light: DIQMTQSPSSLSASVGDRVTITCSARQSVSYMYWYQQKPGKAPKLLIYRTSNLASGVPSRFSGSGSGTDFTLTISSLQPEDFATYYCQQYHSYPPTFGGGTKVEIKRTVAAPSVFIFPPSDEQLKSGTASVVCLLNNFYPREAKVQWKVDNALQSGNSQESVTEQDSKDSTYSLSSTLTLSKADYEKHKVYACEVTHQGLSSPVTKSFNRGEC
notes: human kappa; also called initial anti-suPAR antibody; original candidate; copies: 2 + 2
Consider B7, for which the Kd in the assay with cynomolgus suPAR is 10.5 nM; in assay [4], 0.69 to 2 nM; in assay [5], less than 0.1 nM; in assay [6] it was 1 to 3 nM; in assay [7], 0.025 nM. Also, the binding result in assay [2] is “no binding (tested: 100 µg/mL)”.

B8: WAb0006 (antibody, human IgG1, V domains shown)
VH: QVQLVQSGAEVKKPGASVKVSCKASGYTFTSHYIQWVRQAPGQGLEWMGWIDHENGNTIYDQKFQGRVTMTRDTSTSTVYMELSSLRSEDTAVYYCARGTDVDWFVYWGQGTLVTVSS
VL: DIQMTQSPSSLSASVGDRVTITCSARSSVSYMYWYQQKPGKAPKLLIYRTSNLASGVPSRFSGSGSGTDFTLTISSLQPEDFATYYCQQYHSYPPTFGGGTKVEIKR
notes: The listing names these entries 'WAb CD0006'; Fc region identical to WAb0014 (human IgG1, L235A, L236A); human kappa; also called original backup candidate
For B8, the binding result in assay [2] was “no binding (tested: 100 µg/mL)”.
